From paper PMC10657439 (Cell Death and Differentiation, 2023)
Blank lines part the entries; values can stand above or below the molecule they belong to.

What was measured:
[1] = target: Fas (CD95), endogenous on human cells (human (endogenous in OVCAR3, Jurkat, PBMC-derived T cells)) (UniProt P25445)
His-Fas^R87A (human) = assay: ELISA
[2] = target: Fas R86A mutant tested for E09 binding (human) (UniProt P25445); assay: ELISA
[3] = target: His-Fas (His-tagged human Fas extracellular domain, wild type) (human); assay: ELISA
[4] = target: T1, His-Fas (His-tagged human Fas extracellular domain, wild type) (human); assay: BLI
T1 chain: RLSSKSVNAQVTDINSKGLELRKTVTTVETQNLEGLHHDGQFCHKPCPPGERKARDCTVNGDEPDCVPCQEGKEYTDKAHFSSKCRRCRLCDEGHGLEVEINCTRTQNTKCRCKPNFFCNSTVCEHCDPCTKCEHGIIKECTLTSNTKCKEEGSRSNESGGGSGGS

[5] = target: T1, His-Fas (His-tagged human Fas …); assay: BLI
[6] = target: T2, Fc-tagged Fas (recombinant extracellular domain of Fas with a C-terminal Fc) (human, UniProt P25445 26-173); assay: ELISA; Fc-tagged Fas (2 μg/ml) coated on 96-well plates; His-tagged FasL (single or tandem) in 2-fold dilutions from 50 to 0.048 nM, 1 h at 37 °C; settings: both partners purified
T2 construct: human Fas (CD95) extracellular domain; also called Fas-IgG1 Fc; IgG4-Fc-tagged Fas; source: FreeStyle CHO-S cells, purified (protein A columns); not shown: Fc (IgG4 in the methods, IgG1 in the results), C-terminal, kept
T2 sequence (looked up): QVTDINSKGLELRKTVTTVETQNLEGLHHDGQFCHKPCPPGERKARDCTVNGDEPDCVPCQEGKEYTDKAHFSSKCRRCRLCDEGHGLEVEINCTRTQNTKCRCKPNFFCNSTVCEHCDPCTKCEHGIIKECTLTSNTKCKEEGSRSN

[7] = target: the molecule itself; assay: non-reducing, partially denaturing SDS-PAGE with anti-His immunoblot; purified His-tagged FasL added to Jurkat cells in culture wells, 30 min; soup and total lysates together; FasL trimer formation

Molecule: His_FasL^TL1A (His-tagged FasL with the cognate region of TL1A, DTYGIV to HELGLA) (ligand)
cytotoxic activity against T cells (cell survival assay, Fig. 3F, G) [1]: > 70%

Molecule: CH11 IgG1
Kd (His-Fas^R87A (human)): 2.2 nM
Kd [2]: 2.02 nM
Kd [3]: 0.983 nM

B2: E09 IgG1 (preclinical Fas agonist antibody) (antibody, V domains shown)
VH: QLQLQESGPGLVKPSETLSLTCTVSGASISANSYYGVWVRQSPGKGLEWVGSIAYRGNSNSGSTYYNPSLKSRATVSVDTSKNQVSLRLTSVTAADTALYYCARRQLLDDGTGYQWAAFDVWGQGTMVTVSS
VL: QSVLTQPPSVSEAPRQTVTISCSGNSFNIGRYPVNWYQQLPGKAPKLLIYYNNLRFSGVSDRFSGSKSGTSASLAIRDLLSEDEADYYCSTWDDTLKGWVFGGGTKVTVLG
Kd [4]: 0.377 nM

B3: His_FasL^WT-A247E (tandem: wild-type FasL unit and A247E unit) (ligand, human)
chain: GGSPSPPPEKKELRKVAHLTGKSNSRSMPLEWEDTYGIVLLSGVKYKKGGLVINETGLYFVYSKVYFRGQSCNNLPLSHKVYMRNSKYPQDLVMMEGKMMSYCTTGQMWARSSYLGAVFNLTSADHLYVNVSELSLVNFEESQTFFGLYKLGGGSGGGSGGGSPSPPPEKKELRKVAHLTGKSNSRSMPLEWEDTYGIVLLSGVKYKKGGLVINETGLYFVYSKVYFRGQSCNNLPLSHKVYMRNSKYPQDLVMMEGKMMSYCTTGQMWARSSYLGEVFNLTSADHLYVNVSELSLVNFEESQTFFGLYKL
notes: linker between the His tag and the first FasL unit; linker between the two FasL units; source: CHO expression system, purified (HisTrap Ni Sepharose); not shown: His7, N-terminal, kept
binding result [6]: binds

B5: His_FasL^WT (N-terminal His-tagged human FasL, wild type) (ligand)
chain: GGSPSPPPEKKELRKVAHLTGKSNSRSMPLEWEDTYGIVLLSGVKYKKGGLVINETGLYFVYSKVYFRGQSCNNLPLSHKVYMRNSKYPQDLVMMEGKMMSYCTTGQMWARSSYLGAVFNLTSADHLYVNVSELSLVNFEESQTFFGLYKL
notes: linker between the His tag and FasL; also called WT FasL; His-tagged FasL; source: FreeStyle CHO-S cells, transfected, purified (Ni-Sepharose HisTrap); not shown: His7, N-terminal, kept
stoichiometry N [7]: 3
binding result [6]: binds

B7: His_FasL^E163A (ligand, human)
chain: GGSPSPPPEKKELRKVAHLTGKSNSRSMPLEWADTYGIVLLSGVKYKKGGLVINETGLYFVYSKVYFRGQSCNNLPLSHKVYMRNSKYPQDLVMMEGKMMSYCTTGQMWARSSYLGAVFNLTSADHLYVNVSELSLVNFEESQTFFGLYKL
notes: linker between the His tag and FasL; also called A163; source: FreeStyle CHO-S cells, transfected, purified (Ni-Sepharose HisTrap); not shown: His7, N-terminal, kept
stoichiometry N [7]: 3

B10: His_FasL^E271A (ligand, human)
chain: GGSPSPPPEKKELRKVAHLTGKSNSRSMPLEWEDTYGIVLLSGVKYKKGGLVINETGLYFVYSKVYFRGQSCNNLPLSHKVYMRNSKYPQDLVMMEGKMMSYCTTGQMWARSSYLGAVFNLTSADHLYVNVSELSLVNFEASQTFFGLYKL
notes: linker between the His tag and FasL; also called A271; source: FreeStyle CHO-S cells, transfected, purified (Ni-Sepharose HisTrap); not shown: His7, N-terminal, kept
stoichiometry N [7]: 3

Next, values leading:

Kd [4]: 60.6 nM
koff [5]: 0.0049 s⁻¹
B1: DB-FasL (protein)
chain: PSPPPEKKELRKVAHLTGKSNSRSMPLEWEDTYGIVLLSGVKYKKGGLVINETGLYFVYSKVYFRGQSCNNLPLSHKVYMRNSKYPQDLVMMEGKMMSYCTTGQMWARSSYLGAVFNLTSADHLYVNVSELSLVNFEESQTFFGLYKL
modifications: Wild-type FasL ectodomain fused to the C-terminus (CH3) of the idarucizumab (anti-dabigatran) IgG1 heavy chain, one FasL per heavy chain. The IgG carrier and linker are left out because they do not bind Fas. Limits are taken from the sister constructs His-FasL WT and E09-FasL WT printed in the tables (PSPPPEKKEL...GLYKL).

binding result [6]: binds
B4: His_FasL^WT-G277S (tandem: wild-type FasL unit and G277S unit) (ligand, human)
chain: GGSPSPPPEKKELRKVAHLTGKSNSRSMPLEWEDTYGIVLLSGVKYKKGGLVINETGLYFVYSKVYFRGQSCNNLPLSHKVYMRNSKYPQDLVMMEGKMMSYCTTGQMWARSSYLGAVFNLTSADHLYVNVSELSLVNFEESQTFFGLYKLGGGSGGGSGGGSPSPPPEKKELRKVAHLTGKSNSRSMPLEWEDTYGIVLLSGVKYKKGGLVINETGLYFVYSKVYFRGQSCNNLPLSHKVYMRNSKYPQDLVMMEGKMMSYCTTGQMWARSSYLGAVFNLTSADHLYVNVSELSLVNFEESQTFFSLYKL
notes: as for B3

binding result [6]: binds
B6: His_FasL^R156G (ALPS mutation) (ligand, human)
chain: GGSPSPPPEKKELRKVAHLTGKSNSGSMPLEWEDTYGIVLLSGVKYKKGGLVINETGLYFVYSKVYFRGQSCNNLPLSHKVYMRNSKYPQDLVMMEGKMMSYCTTGQMWARSSYLGAVFNLTSADHLYVNVSELSLVNFEESQTFFGLYKL
notes: linker between the His tag and FasL; source: FreeStyle CHO-S cells, transfected, purified (Ni-Sepharose HisTrap); not shown: His7, N-terminal, kept

binding result [6]: binds
B8: His_FasL^E270A (ligand, human)
chain: GGSPSPPPEKKELRKVAHLTGKSNSRSMPLEWEDTYGIVLLSGVKYKKGGLVINETGLYFVYSKVYFRGQSCNNLPLSHKVYMRNSKYPQDLVMMEGKMMSYCTTGQMWARSSYLGAVFNLTSADHLYVNVSELSLVNFAESQTFFGLYKL
notes: as for B6

binding result [6]: binds
B9: His_FasL^D164A (printed as His_FasL^D163A in Table 1) (ligand, human)
chain: GGSPSPPPEKKELRKVAHLTGKSNSRSMPLEWEATYGIVLLSGVKYKKGGLVINETGLYFVYSKVYFRGQSCNNLPLSHKVYMRNSKYPQDLVMMEGKMMSYCTTGQMWARSSYLGAVFNLTSADHLYVNVSELSLVNFEESQTFFGLYKL
notes: as for B6
